According to publication PMC13168245:

Target: AMC008 SOSIP.v4.2 Env (HIV-1 (clade B, isolate AMC008))
Experiment: mass photometry; AMC008 alone or with one excess Fab, 1:9 molar ratio in PBS, on ice 30 minutes, diluted in PBS; mass increase divided by 55 kDa per Fab

Substance	stoichiometry N
AMC008 SOSIP.v4.2 Env (complex)	3
antibody 3BC315 Fab	2.07 Fab/55 kDa
antibody b12 Fab	3.09 Fab/55 kDa
